Patent US20260235593A1, “FRET BIOSENSOR RECOMBINANT PROTEINS” (The Regents of the University of California, priority 2023, published 2026)

B1: mNG3A(1-10)-FHA1-EV linker-PKA substrate-HaloTag^(JF669): enhanced FluoSTEP-AKAR: split mNG3A donor, HaloTag^(JF669) acceptor, 116 aa EV linker (protein)
chain: MVSKGEEDNMASLPATHELHIFGSINGVDFDMVGQGTGNPNDGYEELNLKSTKGDLQFSPWILVPHIGYGFHQYLPYPDGMSPFQAAMVDGSGYQVHRTMQFEDGASLTVNYRYTYEGSHIKGEAQVMGTGFPADGPVMTNTLTAADLCVSKMTYPNDKTIISTFKWSYTTVNGKRYRSTARTTYTFAKPMAAKYLKNQPMYVLRKTELKHSMWTFGRNPACDYHLGNISRLSNKHFQILLGEDGNLLLNDISTNGTWLNGQKVSAGGSAGGSAGGSAGGSAGGSGSAGGSAGGSTSAGGSAGGSAGGSAGGSAGGSGSAGGSAGGSTSAGGSAGGSAGGSAGGSAGGSGSAGGSAGGSTSAGGSAGGSAGGSAGGSAGGLRRATLVDGGTGGSELMGSEIGTGFPFDPHYVEVLGERMHYVDVGPRDGTPVLFLHGNPTSSYVWRNIIPHVAPTHRCIAPDLIGMGKSDKPDLGYFFDDHVRFMDAFIEALGLEEVVLVIHDWGSALGFHWAKRNPERVKGIAFMEFIRPIPTWDEWPEFARETFQAFRTTDVGRKLIIDQNVFIEGTLPMGVVRPLTEVEMDHYREPFLNPVDREPLWRFPNELPIAGEPANIVALVEEYMDWLHQSPVPKLLFWGTPGVLIPPAEAARLAKSLPNCKAVDIGPGLNLLQEDNPDLIGSEIARWLSTLEISG
B2: hEGF: human epidermal growth factor (protein, UniProt P01133 23-1207, looked up)
Pro-epidermal growth factor: PQHWSCPEGTLAGNGNSTCVGPAPFLIFSHGNSIFRIDTEGTNYEQLVVDAGVSVIMDFHYNEKRIYWVDLERQLLQRVFLNGSRQERVCNIEKNVSGMAINWINEEVIWSNQQEGIITVTDMKGNNSHILLSALKYPANVAVDPVERFIFWSSEVAGSLYRADLDGVGVKALLETSEKITAVSLDVLDKRLFWIQYNREGSNSLICSCDYDGGSVHISKHPTQHNLFAMSLFGDRIFYSTWKMKTIWIANKHTGKDMVRINLHSSFVPLGELKVVHPLAQPKAEDDTWEPEQKLCKLRKGNCSSTVCGQDLQSHLCMCAEGYALSRDRKYCEDVNECAFWNHGCTLGCKNTPGSYYCTCPVGFVLLPDGKRCHQLVSCPRNVSECSHDCVLTSEGPLCFCPEGSVLERDGKTCSGCSSPDNGGCSQLCVPLSPVSWECDCFPGYDLQLDEKSCAASGPQPFLLFANSQDIRHMHFDGTDYGTLLSQQMGMVYALDHDPVENKIYFAHTALKWIERANMDGSQRERLIEEGVDVPEGLAVDWIGRRFYWTDRGKSLIGRSDLNGKRSKIITKENISQPRGIAVHPMAKRLFWTDTGINPRIESSSLQGLGRLVIASSDLIWPSGITIDFLTDKLYWCDAKQSVIEMANLDGSKRRRLTQNDVGHPFAVAVFEDYVWFSDWAMPSVMRVNKRTGKDRVRLQGSMLKPSSLVVVHPLAKPGADPCLYQNGGCEHICKKRLGTAWCSCREGFMKASDGKTCLALDGHQLLAGGEVDLKNQVTPLDILSKTRVSEDNITESQHMLVAEIMVSDQDDCAPVGCSMYARCISEGEDATCQCLKGFAGDGKLCSDIDECEMGVPVCPPASSKCINTEGGYVCRCSEGYQGDGIHCLDIDECQLGEHSCGENASCTNTEGGYTCMCAGRLSEPGLICPDSTPPPHLREDDHHYSVRNSDSECPLSHDGYCLHDGVCMYIEALDKYACNCVVGYIGERCQYRDLKWWELRHAGHGQQQKVIVVAVCVVVLVMLLLLSLWGAHYYRTQKLLSKNPKNPYEESSRDVRSRRPADTEDGMSSCPQPWFVVIKEHQDLKNGGQPVAGEDGQAADGSMQPTSWRQEPQLCGMGTEQGCWIPVSSDKGSCPQVMERSFHMPSYGTQTLEGGVEKPHSLLSANPLWQQRALDPPHQMELTQ
modifications: Pro-epidermal growth factor

Key:
Assay type in all cases: cell-based
PKA [1] = assay: HaloTag-based FluoSTEP-AKAR co-expressed with FP11-Actin in HeLa cells, Fsk/IBMX stimulation
Excerpt: Recently, anew biosensor design was developed using self-complementing split green FP (GFP) as the FRET donor. The self-complementation allowed the biosensors to be recruited and reconstituted at proteins of interest (POI) endogenously tagged with the FPs eleventh-strand (FP11). This allowed researchers to monitor compartmentalized signaling within endogenous microdomains without overexpressing the POI^[11]. However, this concept, fluorescent biosensors targeted to endogenous proteins (FluoSTEPs), suffers from two major limitations: low dynamic range and low brightness^[11]. Given the promising dynamic range achieved using HaloTag^(JF669) as a FRET acceptor in KARs, we decided to introduce HaloTag into FluoSTEP-AKAR. We replaced mRuby2 in FluoSTEP-AKAR with HaloTag and additionally introduced the EV linker to further increase the dynamic range. In order to address the limitation of low brightness of sfGFP as a FRET donor, we tested the use of two different split mNeonGreen (mNG) versions: split mNeonGreen2 (mNG2)^[22] and split mNeonGreen3A (mNG3A)[^21] in parallel (FIG. 8A). We co-expressed the generated biosensors with FP11-Actin in HeLa cells and used Fsk and IBMX to stimulate the reporters to monitor PKA signal. […] Consistent with previous results biosensors with HaloTag at the C-terminus performed best. […]

PKA [2] = assay: FluoSTEP-AKAR in HeLa cells endogenously expressing mNG11 (knock-in), Fsk/IBMX treatment; conditions: HeLa-mNG11-β-Actin, HeLa-mNG11-clathrin and HeLa-mNG11-ezrin cells; 50 M Fsk and 100 μM IBMX
Method: Using our enhanced HaloTag-based FluoSTEPs mNG3A(1-10)-FHA1-xx aa EV linker-PKA substrate-HaloTag^(JF669) (xx=220 and 116 aa) we measured PKA activation upon treatment with 50 M Fsk and 100 μM IBMX in HeLa cells endogenously expressing mNG11 at different locations (CRISPER-mediated knock-in).

ERK = assay: Multiplexed biosensor imaging in HEK293T cells: ERK activity (yellow/far-red HaloTag-EKAR); conditions: HEK293T cells co-expressing yellow/far-red HaloTag-EKAR and red/far-red HaloTag-AKAR; 100 ng/mL hEGF
Method: (§1) Cell culture and transfection HeLa and HEK293T cells were cultured in Dulbecco's modified Eagle medium (DMEM; Gibco) containing glucose (1 g/L) and supplemented with 10% (v/v) fetal bovine serum (Sigma-Aldrich) and 1% (v/v) penicillin-streptomycin (Pen-Strep; Sigma-Aldrich). NIH3T3 cells were cultured in DMEM (Gibco) containing glucose (1 g/L) and supplemented with 10% (v/v) fetal calf serum and 1% (v/v) Pen-Strep (Sigma-Aldrich). All cells were maintained in a humidified incubator at 37° C. with a 5% CO2 atmosphere. Before transfection, cells were plated onto sterile quartered 35-mm glass-bottomed dishes and grown to 50 to 70% confluence. Cells were then transfected using Lipofectamine 2000 (Invitrogen, HeLa) or PolyJet (SignaGen Laboratories, HEK293T and NIH3T3) and grown an additional 48 hours (HeLa, HEK293T) before imaging. NIH3T3 cells were changed to serum-free DMEM immediately before transfection, medium was changed to complete medium after 6 h. NIH3T3 cells were then serum-starved for 24 hours before imaging. HaloTag labeling was performed 24 h before imaging using synthetic fluorophores (Fluorophore-CA 500 nM, 24 h, 37° C.) in the respective medium. Synthetic fluorophores were kindly provided by Luke Lavis (Janelia Research Campus, JF669-CA, JFX646-CA and JF635) or Kai Johnsson (Max Planck Institute for Medical Research (Germany) and EPFL (Switzerland), NGD-CA). […]

PKA [3] = target: T1, PKA (Homo sapiens, UniProt P17612); assay: Multiplexed biosensor imaging in HEK293T cells: PKA activity (red/far-red HaloTag-AKAR); conditions: HEK293T cells co-expressing yellow/far-red HaloTag-EKAR and red/far-red HaloTag-AKAR; 100 ng/mL hEGF; Fsk and 100 μM IBMX together; M H89
T1 construct: endogenous in cells; host or cells: HEK293T; only the biosensors are transfected
Method: as §1

Molecule	increase when stimulated (dynamic range) (PKA [1]; HeLa cells co-expressing FP11-Actin, Fsk and IBMX, HaloTag labeled with JF669, mean±SEM)	dynamic range relative to the conventional FluoSTEP (PKA [1]; same experimental conditions, conventional FluoSTEP-AKAR of reference [11])	response (PKA activation) compared between EV linker lengths (PKA [2])	ERK activity (ERK)	PKA activity (PKA [3])
B1	71.1%±3.1%	about 8 times	diminished response compared to the sensor with the 220 aa EV linker		
B2				increase in both ERK and PKA activity	increase in both ERK and PKA activity
